Measurements taken from publication PMC9719863 (Molecular Metabolism, 2022).
Where no end group is shown, it is not given here. Side-chain parts run from the residue outwards. The star is where a group is joined. C18 diacid = O=C(O)CCCCCCCCCCCCCCCCC(=O)*; AEEA = NCCOCCOCC(=O)O

Experiments:
[1] = biological target: T1, human GIP receptor (human) (UniProt P48546)
T1 sequence: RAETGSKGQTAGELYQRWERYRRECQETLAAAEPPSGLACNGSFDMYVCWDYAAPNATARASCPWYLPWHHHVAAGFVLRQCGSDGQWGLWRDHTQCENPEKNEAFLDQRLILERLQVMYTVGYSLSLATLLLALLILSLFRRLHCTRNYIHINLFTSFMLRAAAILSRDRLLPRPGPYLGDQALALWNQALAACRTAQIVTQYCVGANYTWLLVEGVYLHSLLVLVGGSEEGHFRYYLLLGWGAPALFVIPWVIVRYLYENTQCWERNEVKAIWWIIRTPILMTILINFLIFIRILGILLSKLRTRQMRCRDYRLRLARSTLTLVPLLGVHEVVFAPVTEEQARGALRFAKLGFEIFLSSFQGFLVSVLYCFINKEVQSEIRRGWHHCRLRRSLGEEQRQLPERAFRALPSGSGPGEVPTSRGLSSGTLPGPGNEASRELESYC

[2] = biological target: T2, mouse GIP receptor (mouse) (UniProt Q0P543)
T2 sequence: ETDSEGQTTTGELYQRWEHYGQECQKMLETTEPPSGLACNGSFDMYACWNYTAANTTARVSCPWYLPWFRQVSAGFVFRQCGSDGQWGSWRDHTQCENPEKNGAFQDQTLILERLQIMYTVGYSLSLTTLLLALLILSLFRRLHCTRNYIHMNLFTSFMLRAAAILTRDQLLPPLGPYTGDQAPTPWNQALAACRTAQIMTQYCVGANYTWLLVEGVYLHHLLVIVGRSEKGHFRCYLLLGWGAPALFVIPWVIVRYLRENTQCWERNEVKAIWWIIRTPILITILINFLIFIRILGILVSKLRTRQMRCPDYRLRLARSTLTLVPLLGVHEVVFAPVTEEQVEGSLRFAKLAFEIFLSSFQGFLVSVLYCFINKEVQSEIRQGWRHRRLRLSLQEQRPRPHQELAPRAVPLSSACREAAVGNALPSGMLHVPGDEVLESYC

hGIPR = biological target: T3, hGIPR (Homo sapiens, UniProt P48546); assay: cAMP CRE-luciferase assay in BHK cells expressing GIPR; type: cell-based; conditions: agonist mode; for Agonism at the hGIPR (cAMP production by peptide alone): without native ligand
T3 sequence (P48546 22-466): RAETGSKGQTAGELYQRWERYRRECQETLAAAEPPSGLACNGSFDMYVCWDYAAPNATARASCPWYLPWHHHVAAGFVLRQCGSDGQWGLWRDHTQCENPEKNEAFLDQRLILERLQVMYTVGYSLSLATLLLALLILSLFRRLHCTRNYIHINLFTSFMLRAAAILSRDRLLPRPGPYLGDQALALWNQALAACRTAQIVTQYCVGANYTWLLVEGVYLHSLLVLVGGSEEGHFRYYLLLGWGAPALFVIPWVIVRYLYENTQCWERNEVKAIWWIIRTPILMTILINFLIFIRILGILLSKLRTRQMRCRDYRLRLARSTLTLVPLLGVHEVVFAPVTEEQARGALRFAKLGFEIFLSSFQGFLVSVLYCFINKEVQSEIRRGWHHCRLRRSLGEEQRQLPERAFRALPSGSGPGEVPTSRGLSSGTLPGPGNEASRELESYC

mGIPR = biological target: T4, mGIPR (Mus musculus, UniProt Q0P543); assay: as above; type: cell-based; conditions: agonist mode, without native ligand
T4 sequence (Q0P543 19-460): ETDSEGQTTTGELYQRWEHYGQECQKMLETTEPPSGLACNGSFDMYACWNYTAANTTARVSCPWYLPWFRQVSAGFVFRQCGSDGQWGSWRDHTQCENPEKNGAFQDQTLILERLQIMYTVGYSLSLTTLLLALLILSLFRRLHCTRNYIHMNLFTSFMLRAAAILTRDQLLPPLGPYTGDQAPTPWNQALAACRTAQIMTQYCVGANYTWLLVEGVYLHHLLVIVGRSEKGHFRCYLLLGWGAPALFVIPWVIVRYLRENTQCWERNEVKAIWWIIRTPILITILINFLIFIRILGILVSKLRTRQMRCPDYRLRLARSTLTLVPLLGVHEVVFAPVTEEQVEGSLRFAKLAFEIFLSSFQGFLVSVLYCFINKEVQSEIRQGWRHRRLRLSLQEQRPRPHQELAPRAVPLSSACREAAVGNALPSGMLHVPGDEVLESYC

human GIP receptor [3] = biological target: T5, human GIP receptor (human, UniProt P48546 22-466); assay: cell-based or functional assay
T5 sequence: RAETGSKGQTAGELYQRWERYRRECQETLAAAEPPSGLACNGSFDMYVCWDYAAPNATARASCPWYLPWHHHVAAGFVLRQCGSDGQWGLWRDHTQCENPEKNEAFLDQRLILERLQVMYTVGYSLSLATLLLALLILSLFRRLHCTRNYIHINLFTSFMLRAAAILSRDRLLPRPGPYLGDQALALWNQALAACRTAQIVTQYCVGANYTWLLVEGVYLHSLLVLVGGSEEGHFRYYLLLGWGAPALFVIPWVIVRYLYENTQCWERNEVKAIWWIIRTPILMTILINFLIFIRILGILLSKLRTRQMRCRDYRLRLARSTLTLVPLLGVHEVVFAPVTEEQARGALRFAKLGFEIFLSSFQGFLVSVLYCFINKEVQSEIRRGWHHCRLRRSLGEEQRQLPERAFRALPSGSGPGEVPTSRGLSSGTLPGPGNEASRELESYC

mouse GIP receptor [4] = biological target: T6, mouse GIP receptor (mouse, UniProt Q0P543 19-460); assay: cell-based or functional assay
T6 sequence: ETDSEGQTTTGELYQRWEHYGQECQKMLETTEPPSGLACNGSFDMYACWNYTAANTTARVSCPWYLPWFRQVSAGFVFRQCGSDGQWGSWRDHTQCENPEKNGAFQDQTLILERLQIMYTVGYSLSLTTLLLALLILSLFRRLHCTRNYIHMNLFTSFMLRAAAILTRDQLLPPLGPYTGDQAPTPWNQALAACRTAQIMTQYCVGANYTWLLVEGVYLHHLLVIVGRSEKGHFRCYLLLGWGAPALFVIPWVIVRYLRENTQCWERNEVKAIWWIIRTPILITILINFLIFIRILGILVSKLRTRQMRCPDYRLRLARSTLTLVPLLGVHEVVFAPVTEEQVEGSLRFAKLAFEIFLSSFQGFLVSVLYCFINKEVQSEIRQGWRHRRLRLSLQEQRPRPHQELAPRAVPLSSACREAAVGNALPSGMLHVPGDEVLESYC

human GIP receptor [5] = biological target: T5, human GIP receptor; assay: radioligand binding
mouse GIP receptor [6] = biological target: T6, mouse GIP receptor; assay: radioligand binding

[Pla6, L14, R18, E21] hGIP(6-31) (peptide)
maximal % inhibition of GIP-induced cAMP in BHK cells expressing hGIPR [1]: 98%
maximal % inhibition of GIP-induced cAMP in BHK cells expressing mGIPR [2]: 99%

CCCCCCCCCCCCCCCC(=O)N[C@@H](CCC(=O)NCCCC[C@H](NC(=O)[C@H](Cc1ccc(O)cc1)NC(=O)[C@H](CC(=O)O)NC(=O)[C@H](CO)NC(=O)[C@@H](NC(=O)[C@H](Cc1ccccc1)NC(=O)[C@@H](NC(=O)CNC(=O)[C@@H](N)CCC(=O)O)[C@@H](C)O)[C@@H](C)CC)C(=O)N[C@H](C(=O)N[C@@H](C)C(=O)N[C@@H](CC(C)C)C(=O)N[C@@H](CC(=O)O)C(=O)N[C@@H](CCCCN)C(=O)N[C@H](C(=O)N[C@@H](CCCNC(=N)N)C(=O)N[C@@H](CCC(N)=O)C(=O)N[C@@H](CCC(N)=O)C(=O)N[C@@H](CCC(=O)O)C(=O)N[C@@H](Cc1ccccc1)C(=O)N[C@H](C(=O)N[C@@H](CC(N)=O)C(=O)N[C@@H](Cc1c[nH]c2ccccc12)C(=O)N[C@@H](CC(C)C)C(=O)N[C@@H](CC(C)C)C(=O)N[C@@H](C)C(=O)N[C@@H](CCC(N)=O)C(=O)N[C@@H](CCCCN)C(N)=O)C(C)C)[C@@H](C)CC)[C@@H](C)CC)C(=O)O [Peptide 6, [L14, R18, E21] hGIP(3–30)-K11 (γE-C16)]
Agonism at the hGIPR (cAMP production by peptide alone) (hGIPR): negligible cAMP production as agonists
Agonism at the mGIPR (cAMP production by peptide alone) (mGIPR): negligible cAMP production as agonists

[Pla6, L14, R18, E21] hGIP(6-31)-K11 (γE-C16) (peptide)
maximal % inhibition of GIP-induced cAMP in BHK cells expressing hGIPR [1]: 100%
maximal % inhibition of GIP-induced cAMP in BHK cells expressing mGIPR [2]: 99%

FISDYSIALDKIRQQEFVNWLLAQKG [Peptide 4, [L14, R18, E21] hGIP(6–31)]
Agonism at the hGIPR (cAMP production by peptide alone) (hGIPR): partial agonism
Agonism at the mGIPR (cAMP production by peptide alone) (mGIPR): no significant agonism

CC[C@H](C)[C@H](NC(=O)[C@H](CO)NC(=O)[C@H](Cc1ccc(O)cc1)NC(=O)[C@H](CC(=O)O)NC(=O)[C@H](CO)NC(=O)[C@@H](NC(=O)[C@H](Cc1ccccc1)NC(=O)[C@@H](NC(=O)CNC(=O)[C@H](CCC(=O)O)NC(=O)[C@H](C)NC(=O)[C@@H](N)Cc1ccc(O)cc1)[C@@H](C)O)[C@@H](C)CC)C(=O)N[C@@H](C)C(=O)N[C@@H](CCSC)C(=O)N[C@@H](CC(=O)O)C(=O)N[C@@H](CCCCN)C(=O)N[C@H](C(=O)N[C@@H](CCCNC(=N)N)C(=O)N[C@@H](CCC(N)=O)C(=O)N[C@@H](CCC(N)=O)C(=O)N[C@@H](CC(=O)O)C(=O)N[C@@H](Cc1ccccc1)C(=O)N[C@H](C(=O)N[C@@H](CC(N)=O)C(=O)N[C@@H](Cc1c[nH]c2ccccc12)C(=O)N[C@@H](CC(C)C)C(=O)N[C@@H](CC(C)C)C(=O)N[C@@H](C)C(=O)N[C@@H](CCC(N)=O)C(=O)N[C@@H](CCCNC(=N)N)C(=O)NCC(=O)N[C@@H](CCCCN)C(=O)N[C@@H](CCCCN)C(=O)N[C@@H](CO)C(=O)N[C@@H](CC(=O)O)C(=O)N[C@@H](Cc1c[nH]c2ccccc12)C(=O)N[C@@H](CCCCN)C(=O)N[C@@H](Cc1c[nH]cn1)C(=O)N[C@@H](CC(N)=O)C(=O)N[C@H](C(=O)N[C@H](C(=O)N[C@@H](CCC(N)=O)C(=O)O)[C@@H](C)O)[C@@H](C)CC)C(C)C)[C@@H](C)CC [mGIP, reference compound]
EC50 (hGIPR; cAMP EC50, hGIPR, native ligand, Table 1): 0.01 nM

mouse GIP (from UniProt P48756 44-85) (ligand)
EC50 of cAMP production (CRE-luciferase) in BHK cells expressing hGIPR [1]: 0.01 nM

EGTFISDYSIALDKIRQQEFVNWLLAQK-NH2 [Peptide 2, [L14, R18, E21] hGIP(3–30)]
Agonism at the hGIPR (cAMP production by peptide alone) (hGIPR): partial agonism
Agonism at the mGIPR (cAMP production by peptide alone) (mGIPR): no significant agonism

TFISDYSIALDKIRQQEFVNWLLAQKG [Peptide 3, [L14, R18, E21] hGIP(5–31)]
Agonism at the hGIPR (cAMP production by peptide alone) (hGIPR): partial agonism
Agonism at the mGIPR (cAMP production by peptide alone) (mGIPR): no significant agonism

Ac-TFISDYK([AEEA-AEEA-C18 diacid])IALDKIRQQEFVNWLLAQKG [[Nα-Ac, L14, R18, E21] hGIP(5-31)-K11(OEG2-C18-OH)]
maximal % inhibition of GIP-induced cAMP in BHK cells expressing hGIPR (human GIP receptor [3]): 100%
maximal % inhibition of GIP-induced cAMP in BHK cells expressing mGIPR (mouse GIP receptor [4]): 100%
IC50 (human GIP receptor [5]): 2.49 nM
IC50 (mouse GIP receptor [6]): 8.7 nM
